Data on four molecules can be found in PMC9394474 (Viruses, 2022).

What is called stoichiometry N is the number of molecules, sites or subunits per partner or assembly. For orientation: Kd means the free concentration of one partner at which half of the binding sites on the other are occupied at equilibrium, for simple one-to-one binding. The low end stands for tighter binding, the high end for weaker binding.

Holding throughout (assay): ITC
Holding throughout (conditions): both partners purified

For test [1], the target named is T1, mouse TRIM7-PRYSPRY (mouse, UniProt Q923T7 342-510).
T1 construct: vector pOPTH; also called mTRIM7; mTrim7-PRYPSRY

The target in test [2] is hisMBP-TRIM7-CC-PRYSPRY (human, UniProt Q9C029 165-511).
Test [3] concerns the target T2, human hisTRIM7-PRYSPRY (human, UniProt Q9C029 342-511).
T2 construct: vector pOPTH; also called hTRIM7-PRYSPRY; hTRIM7

B1: rabbit glycogenin-1, full length (natural protein)
chain: MTDQAFVTLTTNDAYAKGALVLGSSLKQHRTSRRLAVLTTPQVSDTMRKALEIVFDEVITVDILDSGDSAHLTLMKRPELGVTLTKLHCWSLTQYSKCVFMDADTLVLANIDDLFEREELSAAPDPGWPDCFNSGVFVYQPSVETYNQLLHVASEQGSFDGGDQGLLNTFFNSWATTDIRKHLPFIYNLSSISIYSYLPAFKAFGANAKVVHFLGQTKPWNYTYDTKTKSVRSEGHDPTMTHPQFLNVWWDIFTTSVVPLLQQFGLVQDTCSYQHVEDVSGAVSHLSLGETPATTQPFVSSEERKERWEQGQADYMGADSFDNIKKKLDTYLQ
notes: vector pOPTH; also called rbGYG1; full-length rbGYG1
Regarding B1, the binding result in test [1] is recorded as “binds”.

B2: hexahistidine-tagged full-length human GYG1, GN1 isoform (natural protein)
chain: MTDQAFVTLTTNDAYAKGALVLGSSLKQHRTTRRLVVLATPQVSDSMRKVLETVFDEVIMVDVLDSGDSAHLTLMKRPELGVTLTKLHCWSLTQYSKCVFMDADTLVLANIDDLFDREELSAAPDPGWPDCFNSGVFVYQPSVETYNQLLHLASEQGSFDGGDQGILNTFFSSWATTDIRKHLPFIYNLSSISIYSYLPAFKVFGASAKVVHFLGRVKPWNYTYDPKTKSVKSEAHDPNMTHPEFLILWWNIFTTNVLPLLQQFGLVKDTCSYVNVEDVSGAISHLSLGEIPAMAQPFVSSEERKERWEQGQADYMGADSFDNIKRKLDTYLQ
notes: also called hsGYG1-GN1; hGYG1-GN1
On to B2, for which the “stoichiometry N” value in test [2] was determined as 1.

B3: mouse glycogenin-1, full length (natural protein)
chain: MTDQAFVTLTTNDAYAKGALVLGSSLKQHRTTRRMVVLTSPQVSDSMRKVLETVFDDVIMVDVLDSGDSAHLTLMKRPELGITLTKLHCWSLTQYSKCVFMDADTLVLSNIDDLFEREELSAAPDPGWPDCFNSGVFVYQPSIETYNQLLHLASEQGSFDGGDQGLLNTYFSGWATTDITKHLPFVYNLSSISIYSYLPAFKAFGKNAKVVHFLGRTKPWNYTYNPQTKSVNCDSQDPTVSHPEFLNLWWDTFTTNVLPLLQHHGLVKDASSYLMMEHVSGALSDLSFGEAPAAPQPSMSSEERKERWEQGQADYMGADSFDNIKRKLDTYLQ
notes: also called mGYG1; mGYG
Turning to B3, the binding result in test [1] is on record as “binds”.
Consider AAAAALQ, for which, in test [3], binding was put at a Kd of 8 µM.
